The target of test [1] is T1, human PD1 expressed on cells (activated Jurkat T cells; SpESFX-2D1 transfectants) (human, UniProt Q15116 25-288).
T1 construct: whole, on cells; Endogenous on stimulated Jurkat cells; transfected human PD1 on SpESFX-2D1; also called CD279; 2D1 cells
Description: binding to 2D1 cells transfected with human PD1.

The target in test [2] is T2, recombinant human PD1-His (human, UniProt Q15116 25-167, limits assumed).
T2 construct: also called recombinant PD1-His; not shown: His tag
Kind of test: in vitro binding to recombinant human PD1-His (FIG. 32).

For orientation: EC50 means the concentration at which the effect is half-maximal.

T1 sequence (Q15116 25-288): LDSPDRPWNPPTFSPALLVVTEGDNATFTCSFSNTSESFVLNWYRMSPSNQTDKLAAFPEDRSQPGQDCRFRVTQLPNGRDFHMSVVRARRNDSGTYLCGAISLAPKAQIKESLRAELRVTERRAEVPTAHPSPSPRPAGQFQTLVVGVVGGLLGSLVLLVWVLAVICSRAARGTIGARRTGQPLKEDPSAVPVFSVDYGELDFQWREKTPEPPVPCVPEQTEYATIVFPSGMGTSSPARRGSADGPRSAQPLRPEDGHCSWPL
T2 sequence (Q15116 25-167 limits assumed): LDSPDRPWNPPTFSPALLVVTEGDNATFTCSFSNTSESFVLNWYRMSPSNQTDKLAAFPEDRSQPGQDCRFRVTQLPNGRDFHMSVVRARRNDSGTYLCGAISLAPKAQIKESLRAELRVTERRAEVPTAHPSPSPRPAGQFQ

B1: 2G9 (IMMU-cPD1) (antibody, V domains shown)
VH: VKLQESGGGLVKPGGSLKLSCAASGFAFSSNDMSWVRQTPEKRLEWVATISGGGINTYYPDSVKGRFTISRDNARNTLDLQMSSLRSEDTALYYCARRSNYAWFAYWGQGTPVTVSA
VL: not shown
notes: also called chimeric anti-PD1; chimeric version of 5G9
As to B1, the figures for the EC50 in test [1] and in test [2] were 0.168 µg/mL and 0.072 nM, respectively.

B2: humanized anti-PD1 antibody version 5 (V5) (antibody, V domains shown)
VH: QVQLVESGGGLVKPGGSLRLSCAASGFAFSSNDMSWVRQAPGKGLEWVATISGGGINTYYPDSVKGRFTISRDNAKNTLYLQMNSLRAEDTAVYYCARRSNYAWFAYWGQGTPVTVSA
VL: DIQLTQSPASLAVSLGQRATISCRASESVDTYGISFMNWFQQKPGQPPKLLISPNQGSGVPARFSGSGSGTDFTLTINSLEAEDTAVYFCQQSKEVPWTFGGGTKLEIK
notes: V5 is V4 with a putative light-chain N-glycosylation site removed; also called hPD1 v5; hPD1 (v5)
B2 registered an EC50 in test [1] of 0.568 µg/mL.

These data come from US20170275375A1 (published 2017).
